Where two headings read alike, the source gives them in different places.
What was measured:
[1] = male Swiss albino mice, iv 3 nmol total peptide, radio-HPLC
Protocol: [^67Ga]NeoBOMB1 was injected as a 100 μL bolus (11–22 MBq, 3 nmol total peptide) in the tail vein of male Swiss albino mice (30 ± 5 g, NCSR “Demokritos” Animal House Facility). Mice were anesthetized, and blood (0.5–1 mL) was collected from the heart at 5 and 30 min post injection (pi). Animals were euthanized and blood directly drawn from the heart was transferred in a pre-chilled EDTA-containing Eppendorf tube on ice. Blood samples were centrifuged for 10 min at 2000× g at 4 °C and plasma was collected. After addition of an equal volume of ice-cold MeCN the mixture was centrifuged for 10 min at 15,000× g at 4 °C. The supernatant was concentrated under a N2-flux at 40 °C to 0.05–0.1 mL, diluted with saline (0.4 mL), filtered through a 0.22 μm Millex GV filter (Millipore, Milford, MA, USA) and analyzed by RP-HPLC. The Symmetry Shield RP18 (5 μm, 3.9 mm × 20 mm) column was eluted at a flow rate of 1.0 mL/min with the following linear gradient: 100% A and 0% B to 50% A and 50% B in 50 min; (A = 0.1% aqueous TFA (v/v) and B = MeCN). The tR of the intact radiopeptide was determined by coinjection with the [^67Ga]NeoBOMB1 reference in the HPLC.

in vivo = conditions: female, SCID, mouse, iv, total radioactivity, Biodistribution, mean ± sd, n = 4; for tissue uptake at 4 h: 4 h pi; for tissue uptake at 1 h: 1 h pi; for tissue uptake at 24 h: 24 h pi
Protocol: (§1) Female SCID mice (15 ± 3 g, six weeks of age animals at the day of arrival, NCSR “Demokritos” Animal House Facility) were acclimatized under aseptic conditions and treated with estrogens (receiving 4 mg/L β-estradiol, Sigma-Aldrich, St. Louis, MO, USA, in their drinking water,) for a week prior to inoculation. A ≈ 150 μL bolus containing a suspension of ≈1.2 × 10^7 freshly harvested human T-47D cells suspended in Matrigel (Corning Life Sciences, Inc., Bedford, MA, USA) was subcutaneously injected in their flanks. The animals were kept under estrogen treatment for additional 8 weeks till they developed well-palpable tumors (100–200 mg) at the inoculation sites.
(§2) On the day of the experiment animals were allowed access to water, but not to food. Animals in 3 groups of 4 received a 100 μL bolus of [^67Ga]NeoBOMB1 (37 kBq, corresponding to 10 pmol, or 200 pmol total peptide or 40 nmol for in vivo GRPR-blockade for each of the 3 groups) was injected in the tail vein; animals were euthanized at 4 h pi and dissected. Samples of blood, tumors and organs of interest were collected, weighed and measured for radioactivity in the gamma counter. Intestines and stomach were not emptied of their contents. In another experimental setting, mice in 3 groups of 4 received a 100 μL bolus of [^67Ga]NeoBOMB1 (37 kBq, 200 pmol); they were euthanized at 1 h, 4 h and 24 h pi and biodistribution was conducted as described above. Statistical analysis was conducted using the unpaired two-tailed Student’s t-test; values p < 0.05 were considered statistically significant.

[2] = test system: T-47D Xenograft-Bearing SCID Mice; assay: in vivo; conditions: T-47D tumor, 4 h pi, mean ± sd, n = 4
Protocol: as §1, §2

[3] = T-47D tumor, 200 pmol, Tumor, 200 pmol peptide (0.185 MBq/nmol) iv, Table 2 time study
[4] = blood, 200 pmol, 200 pmol peptide (0.185 MBq/nmol) iv, Table 2 time study
[5] = femur, 200 pmol, 200 pmol peptide (0.185 MBq/nmol) iv, Table 2 time study
[6] = heart, 200 pmol, 200 pmol peptide (0.185 MBq/nmol) iv, Table 2 time study
[7] = intestines (not emptied), 200 pmol, Intestines, 200 pmol peptide (0.185 MBq/nmol) iv, Table 2 time study
[8] = kidneys, 200 pmol, 200 pmol peptide (0.185 MBq/nmol) iv, Table 2 time study
[9] = liver, 200 pmol, 200 pmol peptide (0.185 MBq/nmol) iv, Table 2 time study
[10] = lungs, 200 pmol, 200 pmol peptide (0.185 MBq/nmol) iv, Table 2 time study
[11] = muscle, 200 pmol, 200 pmol peptide (0.185 MBq/nmol) iv, Table 2 time study
[12] = pancreas, 200 pmol, 200 pmol peptide (0.185 MBq/nmol) iv, Table 2 time study
[13] = spleen, 200 pmol, 200 pmol peptide (0.185 MBq/nmol) iv, Table 2 time study
[14] = stomach (not emptied), 200 pmol, Stomach, 200 pmol peptide (0.185 MBq/nmol) iv, Table 2 time study

CC(C)CC(CC(C)C)NC(=O)[C@H](Cc1cnc[nH]1)NC(=O)CNC(=O)[C@@H](NC(=O)[C@H](C)NC(=O)[C@H](Cc1c[nH]c2ccccc12)NC(=O)[C@H](CCC(N)=O)NC(=O)[C@@H](Cc1ccccc1)NC(=O)COCC(=O)Nc1ccc(CNC(=O)CN2CCN(CC(=O)O)CCN(CC(=O)O)CCN(CC(=O)O)CC2)cc1)C(C)C [[^67Ga]NeoBOMB1, metal not drawn]
Intact radioligand in mouse circulation ([1]; blood collected 5 min pi): 98%
Intact radioligand in mouse circulation ([1]; blood collected 30 min pi): 90%
tissue uptake at 4 h (in vivo; T-47D tumor, 10 pmol, Tumor, 10 pmol peptide (3.7 MBq/nmol) iv): 9.52 ± 2.15 %ID/g
tissue uptake at 1 h (in vivo; [3]): 7.4 ± 0.68 %ID/g
tissue uptake at 4 h (in vivo; T-47D tumor, 200 pmol, Tumor, 200 pmol peptide (0.185 MBq/nmol) iv, Table 1 dose study): 7.79 ± 1.54 %ID/g
tissue uptake at 4 h (in vivo; [3]): 8.67 ± 2.88 %ID/g
tissue uptake at 24 h (in vivo; [3]): 7.89 ± 1.13 %ID/g
tissue uptake at 4 h (in vivo; T-47D tumor, 40 nmol, Tumor, 40 nmol NeoBOMB1, in vivo GRPR-blockade): 0.6 ± 0.1 %ID/g
tissue uptake at 1 h (in vivo; [4]): 5.78 ± 0.29 %ID/g
tissue uptake at 4 h (in vivo; [4]): 0.52 ± 0.03 %ID/g
tissue uptake at 24 h (in vivo; [4]): 0.15 ± 0.01 %ID/g
tissue uptake at 4 h (in vivo; femur, 10 pmol, 10 pmol peptide (3.7 MBq/nmol) iv): 0.58 ± 0.06 %ID/g
tissue uptake at 1 h (in vivo; [5]): 0.73 ± 0.11 %ID/g
tissue uptake at 4 h (in vivo; femur, 200 pmol, 200 pmol peptide (0.185 MBq/nmol) iv, Table 1 dose study): 0.28 ± 0.01 %ID/g
tissue uptake at 4 h (in vivo; [5]): 0.37 ± 0.02 %ID/g
tissue uptake at 24 h (in vivo; [5]): 0.24 ± 0.08 %ID/g
tissue uptake at 4 h (in vivo; femur, 40 nmol, 40 nmol NeoBOMB1, in vivo GRPR-blockade): 0.31 ± 0.02 %ID/g
tissue uptake at 4 h (in vivo; heart, 10 pmol, 10 pmol peptide (3.7 MBq/nmol) iv): 0.26 ± 0.01 %ID/g
tissue uptake at 1 h (in vivo; [6]): 1.94 ± 0.09 %ID/g
tissue uptake at 4 h (in vivo; heart, 200 pmol, 200 pmol peptide (0.185 MBq/nmol) iv, Table 1 dose study): 0.34 ± 0.04 %ID/g
tissue uptake at 4 h (in vivo; [6]): 0.52 ± 0.04 %ID/g
tissue uptake at 24 h (in vivo; [6]): 0.22 ± 0.04 %ID/g
tissue uptake at 4 h (in vivo; heart, 40 nmol, 40 nmol NeoBOMB1, in vivo GRPR-blockade): 0.38 ± 0.02 %ID/g
tissue uptake at 1 h (in vivo; [7]): 10.6 ± 0.87 %ID/g
tissue uptake at 4 h (in vivo; [7]): 18.5 ± 2.12 %ID/g
tissue uptake at 24 h (in vivo; [7]): 2.31 ± 0.34 %ID/g
tissue uptake at 4 h (in vivo; intestines, 10 pmol, Intestines (not emptied), 10 pmol peptide (3.7 MBq/nmol) iv): 16.7 ± 2.18 %ID/g
tissue uptake at 4 h (in vivo; intestines, 200 pmol, Intestines (not emptied), 200 pmol peptide (0.185 MBq/nmol) iv, Table 1 dose study): 15.1 ± 1.52 %ID/g
tissue uptake at 4 h (in vivo; intestines, 40 nmol, Intestines (not emptied), 40 nmol NeoBOMB1, in vivo GRPR-blockade): 11.1 ± 2.71 %ID/g
tissue uptake at 4 h (in vivo; kidneys, 10 pmol, 10 pmol peptide (3.7 MBq/nmol) iv): 3.4 ± 0.45 %ID/g
tissue uptake at 1 h (in vivo; [8]): 7.33 ± 0.47 %ID/g
tissue uptake at 4 h (in vivo; kidneys, 200 pmol, 200 pmol peptide (0.185 MBq/nmol) iv, Table 1 dose study): 2.76 ± 0.26 %ID/g
tissue uptake at 4 h (in vivo; [8]): 3.1 ± 0.75 %ID/g
tissue uptake at 24 h (in vivo; [8]): 2.15 ± 0.42 %ID/g
tissue uptake at 4 h (in vivo; kidneys, 40 nmol, 40 nmol NeoBOMB1, in vivo GRPR-blockade): 3.95 ± 0.94 %ID/g
tissue uptake at 4 h (in vivo; liver, 10 pmol, 10 pmol peptide (3.7 MBq/nmol) iv): 3.37 ± 0.19 %ID/g
tissue uptake at 1 h (in vivo; [9]): 25.7 ± 1.97 %ID/g
tissue uptake at 4 h (in vivo; liver, 200 pmol, 200 pmol peptide (0.185 MBq/nmol) iv, Table 1 dose study): 6.5 ± 0.34 %ID/g
tissue uptake at 4 h (in vivo; [9]): 7.05 ± 0.31 %ID/g
tissue uptake at 24 h (in vivo; [9]): 2.26 ± 0.18 %ID/g
tissue uptake at 4 h (in vivo; liver, 40 nmol, 40 nmol NeoBOMB1, in vivo GRPR-blockade): 9.67 ± 0.75 %ID/g
tissue uptake at 4 h (in vivo; lungs, 10 pmol, 10 pmol peptide (3.7 MBq/nmol) iv): 0.5 ± 0.06 %ID/g
tissue uptake at 1 h (in vivo; [10]): 2.88 ± 0.2 %ID/g
tissue uptake at 4 h (in vivo; lungs, 200 pmol, 200 pmol peptide (0.185 MBq/nmol) iv, Table 1 dose study): 0.43 ± 0.06 %ID/g
tissue uptake at 4 h (in vivo; [10]): 0.47 ± 0.04 %ID/g
tissue uptake at 24 h (in vivo; [10]): 0.15 ± 0.02 %ID/g
tissue uptake at 4 h (in vivo; lungs, 40 nmol, 40 nmol NeoBOMB1, in vivo GRPR-blockade): 0.42 ± 0.02 %ID/g
tissue uptake at 4 h (in vivo; muscle, 10 pmol, 10 pmol peptide (3.7 MBq/nmol) iv): 0.1 ± 0.03 %ID/g
tissue uptake at 1 h (in vivo; [11]): 0.58 ± 0.11 %ID/g
tissue uptake at 4 h (in vivo; muscle, 200 pmol, 200 pmol peptide (0.185 MBq/nmol) iv, Table 1 dose study): 0.12 ± 0.01 %ID/g
tissue uptake at 4 h (in vivo; [11]): 0.17 %ID/g
tissue uptake at 24 h (in vivo; [11]): 0.13 ± 0.01 %ID/g
tissue uptake at 4 h (in vivo; muscle, 40 nmol, 40 nmol NeoBOMB1, in vivo GRPR-blockade): 0.16 ± 0.06 %ID/g
tissue uptake at 4 h (in vivo; pancreas, 10 pmol, 10 pmol peptide (3.7 MBq/nmol) iv): 206 ± 17.4 %ID/g
tissue uptake at 1 h (in vivo; [12]): 32.5 ± 0.78 %ID/g
tissue uptake at 4 h (in vivo; pancreas, 200 pmol, 200 pmol peptide (0.185 MBq/nmol) iv, Table 1 dose study): 42.5 ± 1.31 %ID/g
tissue uptake at 4 h (in vivo; [12]): 36.9 ± 3.58 %ID/g
tissue uptake at 24 h (in vivo; [12]): 21.3 ± 2.77 %ID/g
tissue uptake at 4 h (in vivo; pancreas, 40 nmol, 40 nmol NeoBOMB1, in vivo GRPR-blockade): 1.17 ± 0.11 %ID/g
tissue uptake at 4 h (in vivo; spleen, 10 pmol, 10 pmol peptide (3.7 MBq/nmol) iv): 1.02 ± 0.09 %ID/g
tissue uptake at 1 h (in vivo; [13]): 1.71 ± 0.5 %ID/g
tissue uptake at 4 h (in vivo; spleen, 200 pmol, 200 pmol peptide (0.185 MBq/nmol) iv, Table 1 dose study): 0.7 ± 0.09 %ID/g
tissue uptake at 4 h (in vivo; [13]): 0.89 ± 0.12 %ID/g
tissue uptake at 24 h (in vivo; [13]): 0.46 ± 0.08 %ID/g
tissue uptake at 4 h (in vivo; spleen, 40 nmol, 40 nmol NeoBOMB1, in vivo GRPR-blockade): 0.79 ± 0.11 %ID/g
tissue uptake at 1 h (in vivo; [14]): 5.89 ± 1.02 %ID/g
tissue uptake at 4 h (in vivo; [14]): 2.66 ± 0.16 %ID/g
tissue uptake at 24 h (in vivo; [14]): 2.07 ± 0.43 %ID/g
tissue uptake at 4 h (in vivo; stomach, 10 pmol, Stomach (not emptied), 10 pmol peptide (3.7 MBq/nmol) iv): 4.36 ± 0.56 %ID/g
tissue uptake at 4 h (in vivo; stomach, 200 pmol, Stomach (not emptied), 200 pmol peptide (0.185 MBq/nmol) iv, Table 1 dose study): 2.38 ± 0.13 %ID/g
tissue uptake at 4 h (in vivo; stomach, 40 nmol, Stomach (not emptied), 40 nmol NeoBOMB1, in vivo GRPR-blockade): 0.42 ± 0.1 %ID/g
tissue uptake at 4 h (in vivo; whole blood, 10 pmol, Blood, 10 pmol peptide (3.7 MBq/nmol) iv): 0.53 ± 0.04 %ID/g
tissue uptake at 4 h (in vivo; whole blood, 200 pmol, Blood, 200 pmol peptide (0.185 MBq/nmol) iv, Table 1 dose study): 0.42 ± 0.06 %ID/g
tissue uptake at 4 h (in vivo; whole blood, 40 nmol, Blood, 40 nmol NeoBOMB1, in vivo GRPR-blockade): 0.46 ± 0.03 %ID/g
Biodistribution, Tumor ([2]; 200 pmol peptide (0.185 MBq/nmol) iv, Table 2 time study): 8.68 ± 2.9 % ID/g
Biodistribution, Tumor ([2]; 40 nmol NeoBOMB1, in vivo GRPR-blockade, iv): 0.64 ± 0.10 % ID/g
